Laboratory results published in patent publication US8791061B2, “Peptides for treating and preventing immune-related disorders, including treating and preventing infection by modulating innate immunity” (Soligenix, Inc., priority 2005, dated 2014).
“Also recorded” adds a separate entry of the source. Where no end group is shown, it is not given here. [ ]: non-standard residue; d: D form. Orn = NCCC[C@H](N)C(=O)O

What was measured:
[1] = target: T1, DPPIV (Mus musculus, UniProt P28843); experiment: Plasma DPPIV activity assay with mouse blood; format: biochemical; settings: peptide 0.82 mM in mouse blood, 2 h at 37° C.; relative to saline control set to 100%
T1 construct: The plasma was transferred to a 96-well assay plate for the DPPIV assay; from tissue; host or cells: pooled heparinized whole blood of ICR mice; plasma isolated after incubation
Description: Mouse blood was obtained by cardiac puncture from ICR mice and collected in heparinized blood collection tubes. Blood from several mice was pooled and aliquoted into […]. The peptide was dissolved in acetate buffered saline, pH 5.5, to a concentration of 9 mM. Of this stock solution 30 μL were added to 300 μL of blood and mixed by resuspension (concentration in blood 0.82 mM). For the control, 30 μL of blank acetate buffered saline was added to 300 μL of blood. Each peptide group was prepared in triplicate, whereas the control was prepared in six replicates. The samples were incubated at 37° C. in closed microtubes for two hours. After incubation the plasma was isolated from the samples by centrifugation at 4000 rcf. The plasma was transferred to a 96-well assay plate for the DPPIV assay. The assay was started by adding 5 μL of the DPPIV substrate gly-pro-p-nitroanilide (16 mM in de-ionized water) to 95 μl of plasma (concentration in plasma 0.8 mM) and the increase in UV absorbance (405 nm) was monitored over a 20 min time period. The rate of the production of p-nitroaniline by enzymatic cleavage of gly-pro-p-nitroanilide was taken as the activity of DPPIV (Durinx C et al., (2001) “Reference values for plasma dipeptidyl-peptidase IV activity and their association with other laboratory parameters”. Clin Chem Lab Med. 39(2):155-9.)
The effect of the peptides on the activity of DPPIV was observed. Results are presented as normalized, averaged % activity relative to saline control (set to 100%). Anything less than 100% activity represents a reduction in DPPIV activity.
In one aspect of the invention, a reduction by of DPPIV activity by about, or in one embodiment, at least, 25% (i.e. to about 75%+/−5%) was deemed to be active. A person skilled in the art would appreciate that the desired level of activity may vary depending on the use of the peptides.

[2] = test system: S. aureus 25923; experiment: In vivo protection, mice infected IP with S. aureus, peptide after infection; settings: peptide IP 4 hours after infection, 9-24 mg/kg depending on peptide, 24 hours post-infection, vs control
Description: Mice were infected with S. aureus 25923 via intraperitoneal (IP) injection. Four hours later, the peptide of SEQ ID NOs:1, 4, 5, 6, 45, and 47 were administered at 12 mg/kg and 24 mg/kg for SEQ. ID. NO. 1 (FIGS. 2A and 2B), 9.6 mg/kg for SEQ. ID. NO. 5 (FIG. 2C), 13 mg/kg for SEQ. ID. NO. 47 (FIG. 2D), 12 mg/kg for SEQ. ID. NO. 4 (FIG. 2E), 9 mg/kg for SEQ. ID. NO. 6 (FIG. 2F), and 13 mg/kg for SEQ. ID. NO. 45 (FIG. 2G), via IP injection. Twenty-four hours post-infection, surviving animals were sacrificed, and intraperitoneal lavage fluid was plated to determine residual bacterial counts (# colony forming units per ml (CFU/ml)) in the presence and absence of peptide treatment.
Dead animals were assigned the highest bacterial count of any animal in the study.

[3] = test system: S. aureus 25923; experiment: Non-antimicrobial activity, WST-1 colorimetric bacterial viability assay; format: cell-based; settings: peptide 200 μM, 2 hours growth, compared with erythromycin 120 μg/ml
Description: Bacteria (S. aureus 25923) were seeded into wells containing peptide (200 μM), vehicle (Tris), or antibiotic (erythromycin; 120 μg/ml). The bacteria were allowed to grow for 2 hours. Thereafter, bacterial viability was determined utilizing a WST-1 colorimetric viability assay (catalogue number 1 644 807; Roche Diagnostics). DMEM and DMEM+WST-1 were included as background controls.

[4] = test system: S. aureus 25923; experiment: Prophylactic in vivo protection, peptide before IP S. aureus infection of mice; settings: for protection (residual bacterial counts CFU/ml in intraperitoneal lavage fluid): mice, peptide IP 24 hours prior to infection, 12 mg/kg (SEQ 1), 11.5 mg/kg (SEQ 5), 24 hours post-infection; for mouse dead (peptide treatment): prophylactic peptide IP, control 2 mice dead
Description: Twenty-four hours prior to infection, peptide was administered at 12 mg/kg (SEQ. ID. NO. 1, FIG. 3A) and 11.5 mg/kg (SEQ. ID. No. 5, FIG. 3B), via IP injection. Mice were then infected with S. aureus 25923 via IP injection. Twenty-four hours post-infection, surviving animals were sacrificed and intraperitoneal lavage fluid was plated to determine residual bacterial counts (# colony forming units per ml (CFU/ml)) in the presence and absence of peptide treatment.
Dead animals were assigned the highest bacterial count of any animal in the study. The peptides of SEQ. ID.

T1 sequence (P28843 37-760 limits assumed): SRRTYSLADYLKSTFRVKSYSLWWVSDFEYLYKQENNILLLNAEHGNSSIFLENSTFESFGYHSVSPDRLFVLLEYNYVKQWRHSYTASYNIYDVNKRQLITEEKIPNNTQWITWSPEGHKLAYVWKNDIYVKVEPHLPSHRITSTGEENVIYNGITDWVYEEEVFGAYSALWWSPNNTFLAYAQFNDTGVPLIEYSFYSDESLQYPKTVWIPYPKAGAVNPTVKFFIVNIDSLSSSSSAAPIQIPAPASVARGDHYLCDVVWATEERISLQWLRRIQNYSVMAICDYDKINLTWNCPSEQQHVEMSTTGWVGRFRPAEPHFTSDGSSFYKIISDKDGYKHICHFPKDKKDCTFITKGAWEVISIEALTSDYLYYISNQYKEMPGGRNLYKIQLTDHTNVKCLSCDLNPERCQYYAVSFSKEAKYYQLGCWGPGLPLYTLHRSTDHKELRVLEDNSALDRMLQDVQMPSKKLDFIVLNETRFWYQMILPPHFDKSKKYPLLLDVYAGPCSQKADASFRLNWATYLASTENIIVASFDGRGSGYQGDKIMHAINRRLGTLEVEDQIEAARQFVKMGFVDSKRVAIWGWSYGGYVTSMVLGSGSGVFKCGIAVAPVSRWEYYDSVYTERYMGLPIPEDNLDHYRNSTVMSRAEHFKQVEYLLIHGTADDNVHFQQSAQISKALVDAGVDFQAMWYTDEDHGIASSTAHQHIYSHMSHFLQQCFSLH

| Substance | % DPPIV Activity (Saline) [1] | further results |
| --- | --- | --- |
| 6 (KIVPA; IMMUNOLOGICAL PEPTIDE) [compound 6] | 64% | protection (residual bacterial counts CFU/ml in intraperitoneal lavage fluid) [2]: clearly demonstrated protection |
| 83 (Arg-Ile-Pro-NH2) [compound 83] | 47% | – |
| 89 (Lys-His-Pro-NH2) [compound 89] | 72% | – |
| 24 (RIVPL-NH2) [compound 24] | 74% | – |
| 8 (RVPA; IMMUNOLOGICAL PEPTIDE) [compound 8] | 64% | – |
| 17 (RIVPP-NH2) [compound 17] | 82% | – |
| 49 (IRVP-NH2) [compound 49] | 56% | – |
| 52 (PSVPGS-NH2) [compound 52] | 74% | – |
| 50 (RVPS-NH2) [compound 50] | 59% | – |
| 25 (RHVPA-NH2) [compound 25] | 38% | – |
| 18 (RIVPGGA-NH2) [compound 18] | 65% | – |
| 61 (RIVPAC-NH2) [compound 61] | 52% | – |
| 54 (RIVPAIPVSLL-NH2) [compound 54] | 4% | – |
| 43 (SIVPA-NH2) [compound 43] | 80% | – |
| 20 (GIVPA-NH2) [compound 20] | 73% | – |
| 23 (RIVPS-NH2) [compound 23] | 62% | – |
| 81 (KVVPS-NH2) [compound 81] | 57% | – |

| Substance | % DPPIV Activity (Saline) [1] | further results |
| --- | --- | --- |
| 84 ([Orn]-Val-Pro-NH2; N-terminus assumed; SMILES CC(C)[C@H](NC(=O)[C@@H](N)CCCN)C(=O)N1CCC[C@H]1C(N)=O) [compound 84] | 79% | – |
| 46 (RVPSLL-NH2) [compound 46] | 70% | – |
| 51 (Arg-Val-Pro-NH2) [compound 51] | 70% | – |
| 3 (SRIVPA; IMMUNOLOGICAL PEPTIDE) [compound 3] | 60% | – |
| 38 (HIVPA-NH2) [compound 38] | 47% | – |
| 1 (KSRIVP; IMMUNOLOGICAL PEPTIDE) [compound 1] | 76% | antimicrobial activity (bacterial viability) [3]: lacked antimicrobial activity; protection (residual bacterial counts CFU/ml in intraperitoneal lavage fluid) [2]: clearly demonstrated protection; protection (residual bacterial counts CFU/ml in intraperitoneal lavage fluid) [4]: clearly demonstrated protection; mouse dead (peptide treatment) [4]: 0 |
| 65 (RIGPA-NH2) [compound 65] | 77% | – |
| 80 (KVIPS-NH2) [compound 80] | 30% | – |
| 26 (RIPVA-NH2) [compound 26] | −4% | – |
| 14 (RIVPK-NH2) [compound 14] | 67% | – |
| 12 (RRIVPA; IMMUNOLOGICAL PEPTIDE) [compound 12] | 61% | – |
| 5 (RIVPA; IMMUNOLOGICAL PEPTIDE) [compound 5] | 66% | antimicrobial activity (bacterial viability) [3]: lack of activity; also recorded: lacked antimicrobial activity; protection (residual bacterial counts CFU/ml in intraperitoneal lavage fluid) [2]: clearly demonstrated protection; protection (residual bacterial counts CFU/ml in intraperitoneal lavage fluid) [4]: clearly demonstrated protection; mouse dead (peptide treatment) [4]: 0 |
| 9 (RIPA; IMMUNOLOGICAL PEPTIDE) [compound 9] | 51% | – |
| 70 (RIHPA-NH2) [compound 70] | 37% | – |
| 74 (CPVIRH-NH2) [compound 74] | 45% | – |
| 76 (RIVPE-NH2) [compound 76] | 69% | – |
